Measurements from the RNAGym collection of RNA variant scans (doi:10.7554/elife.80360).

B1: HDV Ribozyme (parent)
chain: GGCCGGCAUGGUCCCAGCCUCCUCGCUGGCGCCGGCUGGGCAACAUUCCGAGGGGACCGUCCCCUCGGUAAUGGCGAAUGGGACCCA

Variants of: B1
Experiment: self-cleavage, relative activity (ratio to wild type); higher = more cleavage; co-transcriptional

Variant | self-cleavage
G73C A87U | 0.626
U9A A78U | 0.332
U20G C48A | 0.0723
G31A G67C | 0.513
C32G A78C | 0.0665
U65A C66U | 0.812
G55C C57U | 0.976
C4A A71C | 0.156
G6U C33G | 0.196
G38A C48A | 0.121
G17A G34C | 0.0594
G29C C30U | 0.0415
C41A U46A | 0.7
C44A U79C | 0.122
C33U G40A | 1.06
G28U G73C | 0
U23G C86U | 0.877
G59C A78C | 0.179
U9C A83G | 0.665
G35C C66U | 0.229
A43G A45U | 0.584
G1U G39U | 0.337
U46C A51C | 0.504
C7U A16G | 0.72

Variant | self-cleavage
A42C U79G | 0.151
U46A U72G | 0.65
G40U C86U | 0.688
C4A G39A | 0.119
U20C G53U | 0.101
C36A U65C | 0.095
C14A A56C | 0.539
C22U C84U | 0.29
C21A C57U | 0.192
A16U A77C | 0.0692
G50U C75A | 0.0773
C3A C84A | 0.391
C30A U46G | 0.256
G11U U69G | 0.309
A45U A77G | 0.609
C19G C62A | 0.0264
C22G A51G | 0.104
C48U G74U | 0.554
A8U U79C | 0.177
G39C C41G | 0.462
C36G A42G | 0.147
C24A C66U | 0.69
G31C G54U | 0.332
A70C G74A | 0.308

Variant | self-cleavage
A43C G81U | 0
C33G G39U | 0.0692
C3G C62A | 0.789
G39A C62U | 0.508
G59A G81C | 0.228
G28U U79G | 0.0978
C4U C36A | 0
A16C G81A | 0.489
U23A G52C | 0.946
U23A G52U | 0.819
G1U C58U | 0.401
C62U A87U | 1.08
U65C A70G | 0.705
U37G A87G | 0.0455
G73U G81A | 0.178
G74U C84A | 0.475
G2A C61U | 0.149
A77G G81C | 0.256
C21G C85G | 0.219
C14A C33A | 0.0959
G53A A78G | 0.618
G5U G54C | 0.867
G40C G52U | 0.246
C36U C63G | 0.493

Variant | self-cleavage
C36U C63A | 0.534
A8C C22G | 0.0791
G25C A43C | 0.0554
A45G A70C | 0.88
G6U C57G | 0.491
U46A C85G | 0.575
A16C C26G | 0.731
C30G C66A | 0.0282
C14A G28U | 0.0733
G38U A83U | 0.0959
G11U A70U | 0.228
U27G C32U | 0.831
U27G C32G | 0
C4G C86G | 0.249
A70G A87U | 0.928
C41U G74A | 0.637
G17U C36G | 0
C21G G67C | 0.0978
G40C U60G | 0.271
C4A G68A | 0.196
G55C G68U | 1.08
C32A C58U | 0.208
G1U U65G | 0.17
C36G C58G | 0.0594

Variant | self-cleavage
A56U C85G | 0.982
G11A A71G | 0.554
A71C C84A | 0.511
C15G G67A | 0.731
A43U C66G | 0.47
C49G A78U | 0.138
G73C U79G | 0.107
C13G A42G | 0.178
U12G C66G | 0.862
A8G C33G | 0.0755
C22G A43C | 0.0811
C33U A43U | 0.356
U37A G40U | 0.157
U27A A45U | 0.458
G34C C48G | 0.162
U37A G38A | 0.086
G5U U69C | 0.277
U60A U79A | 0.923
C4U G55A | 0.772
C13A G54C | 0.283
C14U G67U | 1.08
U69C A83G | 0.755
G59U G74U | 0.502
C24U U27A | 0.399

Variant | self-cleavage
G5U C18G | 0
G55C A70U | 0.96
U46G C57U | 0.86
U72A G76U | 0.863
C13G C84G | 0.0978
G54A C86A | 0.988
G52U G68U | 0.415
U23A G55C | 1.12
U23A G55A | 0.969
C36A G39U | 0.0906
C13G C32U | 0.0437
A45G C58U | 0.906
U20G G67A | 0.156
C62A U65G | 0.359
G67A A71U | 0.725
G2C G74A | 0.113
C24U G76A | 0.59
C3A C15G | 0.237
U27G G31C | 0.344
A8C G76U | 0.785
C62G U72G | 0.277
G52U G55U | 0.822
C3G U47G | 0.457
A16C G76U | 0.88

Variant | self-cleavage
A77C C85U | 0.192
C57G C62U | 1.03
G74U G81A | 0.211
A8U G82U | 0.185
G54A A71U | 0.912
C48U C66U | 0.947
G6C C84U | 0.0573
C21G A56U | 0.116
C13A G34U | 0
A56U C58U | 0.985
C49G C57A | 1.19
C24A A77G | 0.256
C26A G59C | 0.944
G2A G39C | 0.0712
U47A G74U | 0.447
C19U C30A | 0.0449
A16G A78U | 0.0692
G25A C75A | 0.166
C7A A51G | 0.635
G31A C33A | 0.0744
A16C C85U | 0.795
U9G A83U | 0.453
G17A C24U | 0.26
